Results on two molecules are retold here after patent US20130252887A1 (BETH ISRAEL DEACONESS MEDICAL CENTER, published 2013).

The target in assay [1] is T1, Beta2-glycoprotein I (β2GPI), full-length, human (human, UniProt P02749 20-345).
T1 construct: mature; Two preparations of the same native protein were used, serum and purified from plasma; the assay field of each row says which; Where anti-β2GPI antibodies (Cedarlane CL20021HP, peroxidase-conjugated) were present, β2GPI stood as dimeric β2GPI/antibody complexes; also called B2GPI; β2GPI in normal human serum
T1 sequence (looked up): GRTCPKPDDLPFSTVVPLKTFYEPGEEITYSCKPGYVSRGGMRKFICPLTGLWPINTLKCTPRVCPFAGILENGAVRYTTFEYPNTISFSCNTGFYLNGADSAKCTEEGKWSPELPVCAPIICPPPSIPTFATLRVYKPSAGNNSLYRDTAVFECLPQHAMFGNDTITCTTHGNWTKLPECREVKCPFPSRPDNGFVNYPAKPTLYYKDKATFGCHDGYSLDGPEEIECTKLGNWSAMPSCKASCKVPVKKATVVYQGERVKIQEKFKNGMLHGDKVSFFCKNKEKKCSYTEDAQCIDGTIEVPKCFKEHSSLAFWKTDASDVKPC
The experiment in a line: inhibition of binding of 10 nM β2GPI purified from plasma to a cardiolipin-coated plate, with anti-β2GPI antibodies present; OD405, one-site inhibition fit. As to the method:
Next, we analyzed how A1-A1 and A1 inhibit the binding of purified β2GPI to cardiolipin. […] We used β2GPI purified from human plasma available from Haematologic Technologies, Inc. and analyzed the binding and inhibition of the binding of purified β2GPI by A1-A1 and A1 in the presence and in the absence of anti-β2GPI antibodies. […] We incubated 10 nM of β2GPI with various concentrations of the dimeric, A1-A1, and monomeric, A1, inhibitors in the presence of anti-β2GPI antibodies. […] In a separate experiment, we measured the inhibition of β2GPI in the presence of antibodies and compared the measured values to values predicted by the fit of the titration data (FIG. 4C). The measured values were close to those expected from the fit, additionally confirming that in the presence of anti-β2GPI antibodies a much lower concentration of A1-A1 was required to inhibit 50% of the binding of purified β2GPI to cardiolipin compared to A1. […] Similarly to what we observed for β2GPI in serum, the binding of purified β2GPI to cardiolipin in the presence of anti-β2GPI antibodies was inhibited more strongly by the dimeric inhibitor A1-A1 than by A1. Both, A1-A1 and A1, were ineffective in the inhibition of β2GPI in the absence of anti-β2GPI antibodies. […]

Assay [2] addresses T2, isolated recombinant domain V of β2GPI (residues 244-326) with N-terminal HA peptide tag (UniProt P02749 263-345).
T2 construct: range 244-326; Expressed in E. coli from pET15b with a His tag that was removed with TEV protease; The HA-tagged form was used in the cardiolipin assays, where it was detected or dimerized with anti-HA antibody Abcam ab1265; also called β2GPI-DV; individual domain V of β2GPI
T2 sequence: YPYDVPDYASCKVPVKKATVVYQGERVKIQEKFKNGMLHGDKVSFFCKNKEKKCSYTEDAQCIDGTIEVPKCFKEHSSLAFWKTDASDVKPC
The experiment in a line: inhibition of binding of 30 nM HA-tagged β2GPI-DV to a cardiolipin-coated plate, with anti-tag (anti-HA) antibody present (dimeric complexes); OD405, one-site fit. How it is done: As we observed for the inhibition of the binding of β2GPI in human serum and purified β2GPI to cardiolipin-coated surfaces, the isolated domain V was inhibited much stronger by the dimeric inhibitor A1-A1 compared to monomeric A1 in the presence of dimeric β2GPI-DV/anti-tag antibody complexes.
Cardiolipin-coated 96 well plates available as part of the ImmunoWELL cardiolipin IgG test kit (GenBio) were blocked with 0.5% of skim milk and 2% BSA in 20 mM Tris, 100 mM NaCl, 2 mM CaCl₂, pH 7.4. The assay buffer contained 20 mM Tris, 100 mM NaCl, 2 mM CaCl₂, pH 7.4 with 2% BSA and the wash buffer was 20 mM Tris, 100 mM NaCl, 2 mM CaCl₂, pH 7.4. When the purified β2GPI (Haematologic Technologies, Inc.) was used in experiments, 27 mM glycine was added to the assay buffer to account for glycine present in the stock solution of β2GPI. β2GPI bound to cardiolipin was detected with peroxidase-conjugated anti-β2GPI antibodies (Cedarlane, CL20021HP, 2 mg/ml) diluted 1:2500. […] The peroxidase activity of the bound antibodies was detected using 2-2′-azino-di-[3-ethylbenzthizzoline]sulfonate (ABTS) chromogenic reagent by measuring OD at 405 nm. […] The fits of the raw data and the titration data points were then normalized to the maximum binding determined from the fit to facilitate comparison. […]

In assay [3] the target is T1, Beta2-glycoprotein I (β2GPI), …. Description: inhibition of binding of β2GPI in 1% human serum to a cardiolipin-coated plate, without anti-β2GPI antibodies during binding (monomeric β2GPI); OD405, one-site fit. An excerpt:
(§1) We compared the dimeric inhibitor, A1-A1, to monomeric A1 on the inhibition of binding of β2GPI/anti-β2GPI antibody complexes to cardiolipin. First, we used pooled normal human serum as a source of β2GPI. The majority of the β2GPI molecules in serum is in the circular form (Agar et al., Blood, 2010). To select the appropriate concentration of β2GPI for the inhibition studies, we measured the binding of β2GPI to cardiolipin (FIG. 2A). To create β2GPI/anti-β2GPI complexes, anti-β2GPI antibodies at constant concentration were added to β2GPI before the samples were applied to cardiolipin. […] We then compared the efficiency of A1-A1 and A1 for the inhibition of the binding of β2GPI in serum to cardiolipin in the presence of anti-β2GPI antibodies (FIG. 2B). 0.04% of human serum, which is in the linear region of the binding curve, was incubated on a cardiolipin-coated surface in the presence of anti-β2GPI antibodies and the inhibitors. In the presence of anti-β2GPI antibodies, the dimeric molecule, A1-A1, inhibited the binding to cardiolipin of β2GPI in serum much stronger than monomeric A1. […] Also, we measured how A1-A1 and A1 inhibited the binding of β2GPI in serum in the absence of anti-β2GPI antibodies (FIG. 3). A 1% solution of human serum was titrated with A1-A1 or A1 and β2GPI bound to cardiolipin was subsequently detected with anti-β2GPI antibodies. […]

For assay [4] the target is unchanged. Description: inhibition of binding of β2GPI in 0.04% human serum to a cardiolipin-coated plate, with anti-β2GPI antibodies present (β2GPI/antibody complexes); OD405, one-site fit.
Description: as §1

For assay [5], the target named is T2, isolated recombinant domain V of β2GPI …. Description: inhibition of binding of isolated HA-tagged β2GPI-DV to a cardiolipin-coated plate, without dimerization antibodies; OD405, one-site fit. How it is done:
Cardiolipin-coated 96 well plates available as part of the ImmunoWELL cardiolipin IgG test kit (GenBio) were blocked with 0.5% of skim milk and 2% BSA in 20 mM Tris, 100 mM NaCl, 2 mM CaCl₂, pH 7.4. The assay buffer contained 20 mM Tris, 100 mM NaCl, 2 mM CaCl₂, pH 7.4 with 2% BSA and the wash buffer was 20 mM Tris, 100 mM NaCl, 2 mM CaCl₂, pH 7.4. When the purified β2GPI (Haematologic Technologies, Inc.) was used in experiments, 27 mM glycine was added to the assay buffer to account for glycine present in the stock solution of β2GPI. β2GPI bound to cardiolipin was detected with peroxidase-conjugated anti-β2GPI antibodies (Cedarlane, CL20021HP, 2 mg/ml) diluted 1:2500. […] The peroxidase activity of the bound antibodies was detected using 2-2′-azino-di-[3-ethylbenzthizzoline]sulfonate (ABTS) chromogenic reagent by measuring OD at 405 nm. […] The fits of the raw data and the titration data points were then normalized to the maximum binding determined from the fit to facilitate comparison.
For the inhibition studies, increasing concentrations of A1 or A1-A1 were added to a constant amount of β2GPI ([…]), normal human serum (1%) or β2GPI-DV (130 nM) and incubated for 1 hour at room temperature. […] Then, samples were incubated on wells for an additional 1 hour and, after washing, the bound β2GPI/anti-β2GPI or β2GPI-DV/anti-tag antibody complexes were detected.

B1: dimeric inhibitor A1-A1 (two A1 ligand-binding LA modules of ApoER2 connected by a Gly-Ser-Ser-Gly linker) (designed binder)
chain: AECEEDQFRCRNERCIPLVWRCDEDNDCSDNSDEDDCGSSGCEEDQFRCRNERCIPLVWRCDEDNDCSDNSDEDDCEA
Turning to B1, the IC50 – broadly, the concentration needed to halve the response being measured – in assay [1] is 26 µM; in assay [2], 12 µM; in assay [3] it was 189 µM; in assay [4], 10 µM.

B2: monomeric A1 (first LA module of mouse ApoER2, residues 12-47 of the mature protein) (receptor)
chain: not shown
notes: range 12-47; Residues 12-47 are counted on the mature protein, not the precursor; also called A1 module
Consider B2, for which the IC50 in assay [5] is 188 µM; in assay [1], 191 µM; in assay [2], 204 µM; in assay [3], 176 µM; in assay [4], 218 µM.
